Measured values as given in the supplement of paper PMC9942255.
Where “and” joins values, the source holds several entries; their conditions need not be identical. Identical values can stand only once.

Tested on: Bacillus subtilis DB104 (SP-AmyQ fusion secretion)
Experiment: AmyQ secretion efficiency, weighted average sort bin (1 = best secretion, 10 = worst) (bin number (weighted average, 1-10)); higher = lower secretion efficiency
In short: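 The secretion score was taken as the read-frequency-weighted mean bin number, normalised to beads per bin, with low-abundance sequences excluded. Bins came from large-particle flow cytometry sorting of occupied alginate beads (~65 nL, about 0.3 cells each, with fluorescein-starch) into 10 equally populated groups by green/red fluorescence ratio after about 13 h at room temperature and nile red staining. The cells were a B. subtilis DB104 library with mature AmyQ fused to designed signal peptides, integrated at amyE, and each bin's amplicons were Illumina-sequenced.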

Sequence	AmyQ secretion efficiency
MPYLKRVLLLLVTGLFMSLFRKKATASAQTG	7.42
MKKRFSLRRRKRKLFGLTSPAFAAEK	7.37
MRKKTKNRLISSVLSTVVISSLLFKRKAGASSK	7.11
MKLRKVLTGSVLSLGLLVSASPAFARKR	5.66
MKKRKRRNFKRFIAAFLVLALMISLVPADALAKST	1.92
MKKCLLFLTTIALILSLSTNCFAKNT	1.59
MRKTIFAFLTGLMMFGTITAASASPR	4.47
MKIRKILLSSALSFGMLISAVPALAAEE	2.95
MKKWMAGLFLAAAVLLCLMVPQQSQGASS	5.65
MKKTIMSFVAVAALSTTAFTGAHASAKEI	2.34
MKKWMAGLFLAAAVLLCLMVPQQTTGTSGSVIQGASS	4.56
MTMLRKIIGWILLLCIIPEFAFTVIASGKEV	5.32
MTKRGIQAFAGGIILATAVLAAVFYLTDEDQAAAV	5.97 and 6.45
MIVLSTIITFNFIILLFISIIVFLSVIQPQPS	5.66
MKLSVKIAGVLTVAAAAMTAKMYATKKGN	8.52
MKKVVSALSISALALSVSGVASAHEI	2.8
MGLGKKLSVAVAASFMSLSISLPGEQAAEG	3.68
MRPVFPLILSAVLFLSCFFGARQTEASHSKR	2.35
MKWMCSICCAAVLLAGGATQAEAV	2.86
MLKKVILAAFILVGSTLGRKSFSSKASAKHV	6.14
MIAYFGKCLLLVTIMFLGVLFGMQQGNHG	5.32
MRKKTKNRLISSVLSTVVISSLLFAPGAAGASSK	2.22
MKKGIIRFLLVSFVLFSTGITGVQAAPA	2.37
MKQGKFVFLILLLMLTLVVAPKEKAEAASS	1.74
MKLRKVLTGSVLSLGLLVSASPTFATSP	1.93
MKKWMAGLFLAAAVLLCLMVPQQIQGDED	8.35

Sequence	AmyQ secretion efficiency
MAIIIAIIAAVIVIAALITFNVSNASPG	7.09
MKKWMAGLFLAAAVLLCLMVPQQYQGASS	6.35
MFSRKILLSSALSFGMLISAVPALAAGT	3.61
MRSYIKVKKKCRLGLILFVPTALADNS	6.78
MKKKQVMLALTAAAGLGLTALHSAPAAKVAPL	6.92
MGGMSCSILVVSVTLFFSFLTIGPLAHAQNS	2.24
MGLGKKLSVAVAASFMSLSISLPGGPAVQAAEG	1.61
MKRSISIFITCLLITLLTMGGMIASPTSAAGT	2.97
MKKKLAAGLTASAIVGTVTPAEAATI	5.84
MTKKAWFLPLVCVLLISGWLAASAQTT	6.17
MRPVFPLILSAVLFLSCFFGARQTEASCSKR	3.44
MKTLRTLCVLMILSGVIFFGLKCDAKDI	4.31
MKKVLMAFIICLSLILSVLAAPPSGEKAESV	6.63
MKSKWMSGLLLVAVGFSFTQVMHHAGET	6.66
MNLRKIMSIMNIILLSSALSLGMLVSAAPVLATSS	2.04
MMSLLSTLLIGIMLLTFAPSAFAKQD	1.88
MRGKSIAVLLSLIMLIAGFLISFSFQM	5.87
MKRNLTITMFILVLSFLSIIVAYPIQTNASPM	5.49
MIAYFGKCLLLVTIMFLGVLFGMFATQQANHG	6.56
MNKLKRLSMSKSRGYSVFIFSSHALAAQY	6.58
MKRKRLLSTLLIGIMLLTFAPSAFAKQD	1.87
MKRIRIPMTLKKGAALTIAPLSFASAEEN	7.82
MSKAAAVLLSLGLVFGFSYGAGHVAEAKTK	2.88
MKSKWMSGLLLVAVGFSFTQVMVHWGET	5.88
MTVPITMLLSTAAGLLLSLTATSVSAHYV	6.06
MKKRLIAPMLKRAASLAFFAMSGSAQAAAY	6.4

Sequence	AmyQ secretion efficiency
MKRKKRGSKRTSALSLGLLVSAPTASFAAES	6.79
MKQGKFSVFLILLLMLTLVVAPKEKEEAASS	7.98
MKLKKRVSMFLVALTMCGGLFVITVFTAVFTPAKAVKT	7.26
MKRIRIPMTLALGAALTIAPLSFTGFGPAGASAEEN	3.89
MKKGIIRFLLVSFVLFFALSTGITGVQGAPA	4.19
MKKSSYCSYQRQVILSGVALTQLS	7.04
MKRMIVRMTLPLLIVCLAFSSFSASARNASE	3.81
MRKYTVKRSILLSFLSVLSGGHHESKAFPV	6.95
MLCVMMLLFSAIASFPVSSQAKDQ	5.36
MKRQGKSKSYAAVILSGWFIADHQTHSQEM	7.16
MKKKQVMLALTAAAGLGLTALHSAPASKAAPL	4.06
MKKIVSILFMFGLVMGFSQFQPSTVFGADK	4.23
MKQGKFSVFLILLLMLTLVVAPKEKAEAASD	1.02
MSTIGLLFMLCLAALFTIGFPAQQADAAEA	2.8
MKRLLSTLLIGIMLLTFAPSAFAAQK	1.73
MKKKLAAGLTASAIVGTTLVVTPAEAARK	3.53
MKVLLSALLLLLFAFEPSTVVTAATAVASGKKL	2.96
MKTKTLFIFSAILTLSIFAPNECFAQTA	2.92
MSRITINIITMFIAAAVISLTGTAEAAEK	2.45
MFNRLFRVCFLAALIMAFTLPNSVYKQKP	6.24
MNIKKFAKQATVLTFTTALLAGGATQAFAKKR	3.43
MRKKRMIMMVITCVMAASLTLGSLLPAGYASAKED	3.07
MKRSISIFITCLLITLLTMGGMIASPASIAGT	4.57
MKKSQYFIVFICFFVLFSVHPIAAANADS	4.12
MKQFAITLSVLCALILLVPTLLVIPFQHNKEAKASV	5.85
MKVLLSALLLLLFAFGPSASGKKL	5.45

Sequence	AmyQ secretion efficiency
MFNRLFRVCFLAALIMAFTLPNSVYHQKP	6.83
MLKKIALTLCPAIVGSLLFFTAPESAHVS	5.94
MRGKSAVLLSLIMLIAGFLINFSFQM	6.91
MIAYFGKCRKRRKRMFLGVLFGMQQANHG	7.55
MKSKGSIMACLILFSFTITTFINTETHSAFSN	7.73
MIKAAAVLLSLGLVFGFSYGAGHVAEAKTK	2.3
MGLGKKLSVAVAASFMSLSISLPGVQNAEG	2.95
MKKTIMSFVAVAALSTTAFGAHASAADD	2.13
MKQIMIFLMIFMLLAMTGQTALAKDV	4.05
MSVCQKSIVRFLVSLIIGTFVISVPFMANAQSD	1.68
MSTNLLSSLAISALSLGLLVSAPTASFAAES	3.94
MTMLRKIIGWILLLCIIPLFAFTVIVSGKEV	5.52
MKKLIMALVILGALRKRYISADSS	7.22
MKLKSKLFVICLAAAAIFTAAGVSANNEALDF	5.76
MKRIRIPMTLSTLALGAALTIAPLSFASAEEN	3.35
MRKNRSSMSFTLILALFVLSLGLLSFMVTPVSAASK	1.45
MKKAFILSAAAAVGLFTFKRRQQASAKEL	7.06
MLKKIALTLCPAIVGSLLFFTAPASPHVS	8.85
MNLRKILLFIALFLMMLTVSAAPVLATSS	1.67
MNKFLKSNFRYYTTGALGISLLASSNFIKASND	7
MRKKRVITCVMAASPAGYATAKED	7.65
MKLRKVRKGSVLSLGLLVSASPAFATSP	4.34
MKRTWNVCLTALLSVLLVAGSVPFHAEAAPD	2.13
MPYLKRVLLLLVTGLFMSLFAVTATFSAQTG	4.6
MKKWLIIAVSLAIMYTKGEAKAAGM	2.92
MNKFLKSNFRFLLAAALGISLLGESNPIKASND	1.52

Sequence	AmyQ secretion efficiency
MKSCKQLIVCSLAAILLLIPSVWFAADS	4.55
MKKVLMAFIICLSLILSVLAAPPSGAKAASK	1.85
MFSIGSIMACLILFSFTITTFINTETISAFSN	5.65
MPYRKRRRVLLLLVTGLFMSLFAVTATASAQTG	1.13
MKKGIIRQSQSQTGLFFALSTGITGVQAAPA	7.14
MKTKTLFIFSAILTLSIFAPNETFAQEE	1.78
MPYLKRVLLLLVTGLFMSLFAVTATASPQTG	1.86
MKRYYVRMTLPLLIVCLAFSSFSASARAASE	2.74
MKNMSCKLVVSVTLFFSFLTIGPLAHTQNS	4.17
MHLIRAAGAVCLAVVLIAGCRFNEDQHQAEDENT	5.99
MGKWYYVVLVLSIAGIGGFSVHAASS	7.3
MKKSQYSRQSKCTFVLFSVHPIAAAAADS	7.33
MFKKHMNNFTISLLIIFLLASAVLAKPIEAHTV	3.28
MRPVFPLILSAVLFLSCFFGARQTETSASKR	5.36
MKKVRRATALFLGLTPAGANAADL	7.17
MTKLKMLSMLTVMIASLFIFSSQALAKRK	4.03
MKSKGSIMACLILFSFTITTFINTETISHFSN	7.54
MKKRLIAPMLLSAASLAFFAMSGSEQAAAY	3.75
MGLGKKLSVAVAASFMSLSISLPGVQKAEG	3.62
MKSKWMSGLLLVAVGTQVMVHAGET	5.76
MFKKLLLATSALTFSLSLVLPLDGHAKAQSV	1.96
MLKKVKRAAFILVGSTLGAFSFSSDASAKHV	1.33
MKKFMNFSSVMLATALFLGLTPAGANAADL	4.23
